# Reference: US20110229556A1, “LIPID-COATED POLYMER PARTICLES FOR IMMUNE STIMULATION” (Massachusetts Institute of Technology, priority 2010, published 2011)
# “Also recorded” adds a separate entry of the source.
# What was measured:
# OVA-specific serum IgG = test: Serum total anti-OVA IgG ELISA after s.c. immunization; type: in vivo, BALB/c or C57B1/6 mice
# Experimental: Antibody titer measurements. Total IgG titers from sera were measured using an ELISA by adsorbing OVA to flat-bottom transparent 96-well plates at room temperature overnight, blocking overnight with bovine serum albumin, adding serially-diluted serum (starting from a minimal dilution of 200×) for 2 hr, and then detecting bound OVA-specific IgG antibody using HRP-labeled anti-mouse IgG (Bio-Rad). Plates were washed between each step using 0.05% Tween-20 in PBS. HRP developed with tetramethylbenzidine was measured using a Molecular Devices SpectraMax Microplate Reader. Monoclonal mouse anti-OVA IgG1 (clone OVA-14, Sigma-Aldrich, St. Louis, Mo.) was included as a standard reference in each assay. Endpoint titers were defined as the highest dilution at which immunized serum ELISA signal exceeded the average+2 standard deviations of pre-immune sera analyzed in parallel. To interpret our titer values in more physiological terms, we used OVA-14 as a standard to determine the concentration of OVA-specific IgG as equivalents of this monoclonal antibody.
# [1] = tested on: naïve OT-I (CD8+) T-cells; test: Priming of naïve OT-I T-cells by particle-pulsed splenic DCs (CFSE dilution); type: cell-based, mice; conditions: DCs pulsed with 10,000-fold higher doses of soluble OVA than the particle dose, with or without MPLA; not shown
# Experimental: Responses of naïve CD4^+ or CD8^+ T-cells transgenically expressing T cell receptors specific for OVA-derived peptides were assessed by in vitro co-culture of OT-II or OT-I primary T-cells with particle-pulsed DCs. Primary dendritic cells were isolated from spleens of C57B1/6 mice by digesting spleens with collagenase and isolating DCs using a CD11c^+ magnetic bead isolation kit (Miltenyi Biotec). In parallel, naïve CD4^+ T-cells or CD8+ T-cells were isolated from OT-II or OT-I TCR-transgenic mice, respectively (Jackson Laboratories), and labeled with CFSE to trace cell division following the manufacturer's instructions. OVA-loaded particles with post-inserted MPLA or soluble OVA/MPLA were added to splenic DCs (12,500 cells/well) at titrated cell:antigen ratios (starting from 40:1 particles:DC, corresponding to 6.2 μg particles), and incubated for 3 hr in a total volume of 150 μL/well at 37° C. and 5% CO2. CFSE-labeled OT-I or OT-II cells (50,000 cells/well) were then added to DCs in a volume of 50 μL complete RPMI media. This total culture volume of 200 μL/well was incubated for 3 days at 37° C. and 5% CO2 to allow proliferation of T-cells, and CFSE dilution was then measured by flow cytometry.
# OVA-specific IgG = test: Avidity of OVA-specific IgG (ELISA with 6M urea wash); type: in vivo, BALB/c mice; conditions: BALB/c, 10 ng OVA, boost day 21, day 28 sera, 6M urea 10 min
# Experimental: The avidity of IgG responses to immunization was measured using an ELISA analysis of serum binding in the presence of urea using a commonly reported procedure from the literature. Serum titer analysis was conducted in duplicate assay plates until serum adsorption was complete. At this point, one plate was incubated in the presence of 6M urea for 10 min followed by washing and detection of bound IgG on both plates as above. Avidity indices were defined as the serum dilution of urea-treated samples where the ELISA absorbance was 0.5 divided by the dilution of untreated samples giving the same absorbance.
molecule,measurement,setting,value
"CCCCCCCCCCCCCCCCCCCCCCCCCC(=O)N[C@@H](CO[C@H]1O[C@H](CO)[C@H](O)[C@H](O)[C@H]1O)[C@H](O)[C@H](O)CCCCCCCCCCCCCC [αGC solution, α-galactosylceramide, reference compound]","IgG titers 14 days after a single immunization, αGC dose titration","OVA-specific serum IgG; BALB/c, 2 ng OVA on microparticles with 10 ng, 100 ng, or 1 μg αGC (on particles or in solution 10 min before at same site)",only a fraction of mice had detectable titers; also recorded: equally effective
"ovalbumin (protein, UniProt P01012 2-386, looked up, model protein antigen ovalbumin dissolved in saline) Ovalbumin: GSIGAASMEFCFDVFKELKVHHANENIFYCPIAIMSALAMVYLGAKDSTRTQINKVVRFDKLPGFGDSIEAQCGTSVNVHSSLRDILNQITKPNDVYSFSLASRLYAEERYPILPEYLQCVKELYRGGLEPINFQTAADQARELINSWVESQTNGIIRNVLQPSSVDSQTAMVLVNAIVFKGLWEKAFKDEDTQAMPFRVTEQESKPVQMMYQIGLFRVASMASEKMKILELPFASGTMSMLVLLPDEVSGLEQLESIINFEKLTEWTSSNVMEERKIKVYLPRMKMEEKYNLTSVLMAMGITDVFSSSANLSGISSAESLKISQAVHAAHAEINEAGREVVGSAEAGVDAASVSEEFRADHPFLFCIKHIATNAVLFFGRCVSP",OT-I proliferation,[1],minimal OT-I proliferation
same,anti-OVA IgG titers,"OVA-specific serum IgG; BALB/c, 10 ng OVA s.c. prime, boost with same dose 3 weeks later, 1.3 μg MPLA and 600 ng αGC where used",only a subset of mice responded
same,time serum titers were maintained,"OVA-specific serum IgG; BALB/c, 10 ng OVA s.c., boost 3 weeks later",not sustained in a majority of the mice
same,avidity: IgG binding following urea washes,OVA-specific IgG,no binding
"SAT(PEG)4-modified OVA: ovalbumin modified with the heterobifunctional cross-linker SAT(PEG)4 for particle coupling (protein, UniProt P01012 2-386, looked up, SAT(PEG)4 cross-linker modified, ovalbumin modified with the heterobifunctional cross-linker SAT(PEG)4 for particle coupling) Ovalbumin: GSIGAASMEFCFDVFKELKVHHANENIFYCPIAIMSALAMVYLGAKDSTRTQINKVVRFDKLPGFGDSIEAQCGTSVNVHSSLRDILNQITKPNDVYSFSLASRLYAEERYPILPEYLQCVKELYRGGLEPINFQTAADQARELINSWVESQTNGIIRNVLQPSSVDSQTAMVLVNAIVFKGLWEKAFKDEDTQAMPFRVTEQESKPVQMMYQIGLFRVASMASEKMKILELPFASGTMSMLVLLPDEVSGLEQLESIINFEKLTEWTSSNVMEERKIKVYLPRMKMEEKYNLTSVLMAMGITDVFSSSANLSGISSAESLKISQAVHAAHAEINEAGREVVGSAEAGVDAASVSEEFRADHPFLFCIKHIATNAVLFFGRCVSP",influence of SAT(PEG)4 modification on the protein's immunogenicity,OVA-specific serum IgG; data not shown,no significant influence
